Test results from patent publication US12104181B2, “Compositions and methods for treating viral infections targeting TRIM7” (THE BOARD OF REGENTS OF THE UNIVERSITY OF TEXAS SYSTEM, priority 2021, dated 2024).

System: coxsackievirus B3 (CVB3-GFP)
Type: cell-based
Conditions: HeLa cells, replicate R1; for Percent Infected R1: GFP-positive cells within RFP-positive gate

Row | Molecule | Percent Infected R1 [%] | Z score R1
1 | RNF10: human RING type E3 ligase expressed from lentiviral vector (protein, UniProt Q8N5U6 1-811, looked up, lentiviral expression, human RING type E3 ligase expressed from lentiviral vector) E3 ubiquitin-protein ligase …: MPLSSPNAAATASDMDKNSGSNSSSASSGSSKGQQPPRSASAGPAGESKPKSDGKNSSGSKRYNRKRELSYPKNESFNNQSRRSSSQKSKTFNKMPPQRGGGSSKLFSSSFNGGRRDEVAEAQRAEFSPAQFSGPKKINLNHLLNFTFEPRGQTGHFEGSGHGSWGKRNKWGHKPFNKELFLQANCQFVVSEDQDYTAHFADPDTLVNWDFVEQVRICSHEVPSCPICLYPPTAAKITRCGHIFCWACILHYLSLSEKTWSKCPICYSSVHKKDLKSVVATESHQYVVGDTITMQLMKREKGVLVALPKSKWMNVDHPIHLGDEQHSQYSKLLLASKEQVLHRVVLEEKVALEQQLAEEKHTPESCFIEAAIQELKTREEALSGLAGSRREVTGVVAALEQLVLMAPLAKESVFQPRKGVLEYLSAFDEETTEVCSLDTPSRPLALPLVEEEEAVSEPEPEGLPEACDDLELADDNLKEGTICTESSQQEPITKSGFTRLSSSPCYYFYQAEDGQHMFLHPVNVRCLVREYGSLERSPEKISATVVEIAGYSMSEDVRQRHRYLSHLPLTCEFSICELALQPPVVSKETLEMFSDDIEKRKRQRQKKAREERRRERRIEIEENKKQGKYPEVHIPLENLQQFPAFNSYTCSSDSALGPTSTEGHGALSISPLSRSPGSHADFLLTPLSPTASQGSPSFCVGSLEEDSPFPSFAQMLRVGKAKADVWPKTAPKKDENSLVPPAPVDSDGESDNSDRVPVPSFQNSFSQAIEAAFMKLDTPATSDPLSEEKGGKKRKKQKQKLLFSTSVVHTK | 88.9 | 0
2 | RNF146: human RING type E3 ligase expressed from lentiviral vector (protein, UniProt Q9NTX7 1-359, looked up) E3 ubiquitin-protein ligase …: MMAGCGEIDHSINMLPTNRKANESCSNTAPSLTVPECAICLQTCVHPVSLPCKHVFCYLCVKGASWLGKRCALCRQEIPEDFLDKPTLLSPEELKAASRGNGEYAWYYEGRNGWWQYDERTSRELEDAFSKGKKNTEMLIAGFLYVADLENMVQYRRNEHGRRRKIKRDIIDIPKKGVAGLRLDCDANTVNLARESSADGADSVSAQSGASVQPLVSSVRPLTSVDGQLTSPATPSPDASTSLEDSFAHLQLSGDNTAERSHRGEGEEDHESPSSGRVPAPDTSIEETESDASSDSEDVSAVVAQHSLTQQRLLVSNANQTVPDRSDRSGTDRSVAGGGTVSVSVRSRRPDGQCTVTEV | 89.7 | 0.01
3 | RNF111: human RING type E3 ligase expressed from lentiviral vector (protein, UniProt Q6ZNA4 1-994, looked up) E3 ubiquitin-protein ligase …: MSQWTPEYNELYTLKVDMKSEIPSDAPKTQESLKGILLHPEPIGAAKSFPAGVEMINSKVGNEFSHLCDDSQKQEKEMNGNQQEQEKSLVVRKKRKSQQAGPSYVQNCVKENQGILGLRQHLGTPSDEDNDSSFSDCLSSPSSSLHFGDSDTVTSDEDKEVSVRHSQTILNAKSRSHSARSHKWPRTETESVSGLLMKRPCLHGSSLRRLPCRKRFVKNNSSQRTQKQKERILMQRKKREVLARRKYALLPSSSSSSENDLSSESSSSSSTEGEEDLFVSASENHQNNPAVPSGSIDEDVVVIEASSTPQVTANEEINVTSTDSEVEIVTVGESYRSRSTLGHSRSHWSQGSSSHASRPQEPRNRSRISTVIQPLRQNAAEVVDLTVDEDEPTVVPTTSARMESQATSASINNSNPSTSEQASDTASAVTSSQPSTVSETSATLTSNSTTGTSIGDDSRRTTSSAVTETGPPAMPRLPSCCPQHSPCGGSSQNHHALGHPHTSCFQQHGHHFQHHHHHHHTPHPAVPVSPSFSDPACPVERPPQVQAPCGANSSSGTSYHEQQALPVDLSNSGIRSHGSGSFHGASAFDPCCPVSSSRAAIFGHQAAAAAPSQPLSSIDGYGSSMVAQPQPQPPPQPSLSSCRHYMPPPYASLTRPLHHQASACPHSHGNPPPQTQPPPQVDYVIPHPVHAFHSQISSHATSHPVAPPPPTHLASTAAPIPQHLPPTHQPISHHIPATAPPAQRLHPHEVMQRMEVQRRRMMQHPTRAHERPPPHPHRMHPNYGHGHHIHVPQTMSSHPRQAPERSAWELGIEAGVTAATYTPGALHPHLAHYHAPPRLHHLQLGALPLMVPDMAGYPHIRYISSGLDGTSFRGPFRGNFEELIHLEERLGNVNRGASQGTIERCTYPHKYKKVTTDWFSQRKLHCKQDGEEGTEEDTEEKCTICLSILEEGEDVRRLPCMHLFHQVCVDQWLITNKKCPICRVDIEAQLPSES | 84.2 | −0.06
4 | RNF2: human RING type E3 ligase expressed from lentiviral vector (protein, UniProt Q99496 2-336, looked up) E3 ubiquitin-protein ligase …: SQAVQTNGTQPLSKTWELSLYELQRTPQEAITDGLEIVVSPRSLHSELMCPICLDMLKNTMTTKECLHRFCADCIITALRSGNKECPTCRKKLVSKRSLRPDPNFDALISKIYPSRDEYEAHQERVLARINKHNNQQALSHSIEEGLKIQAMNRLQRGKKQQIENGSGAEDNGDSSHCSNASTHSNQEAGPSNKRTKTSDDSGLELDNNNAAMAIDPVMDGASEIELVFRPHPTLMEKDDSAQTRYIKTSGNATVDHLSKYLAVRLALEELRSKGESNQMNLDTASEKQYTIYIATASGQFTVLNGSFSLELVSEKYWKVNKPMELYYAPTKEHK | 87.4 | −0.02
5 | RNF148: human RING type E3 ligase expressed from lentiviral vector (protein, UniProt Q8N7C7 35-305, looked up) RING finger protein 148: KAIWTAHLNITFQVGNEITSELGESGVFGNHSPLERVSGVVALPEGWNQNACHPLTNFSRPKQADSWLALIERGGCTFTHKINVAAEKGANGVIIYNYQGTGSKVFPMSHQGTENIVAVMISNLKGMEILHSIQKGVYVTVIIEVGRMHMQWVSHYIMYLFTFLAATIAYFYLDCVWRLTPRVPNSFTRRRSQIKTDVKKAIDQLQLRVLKEGDEELDLNEDNCVVCFDTYKPQDVVRILTCKHFFHKACIDPWLLAHRTCPMCKCDILKT | 82.3 | −0.08
6 | RNF113B: human RING type E3 ligase expressed from lentiviral vector (protein, UniProt Q8IZP6 1-322, looked up, lentiviral expression, human RING type E3 ligase expressed from lentiviral vector) RING finger protein 113B: MAAPPSPGRTADQADQVCTFLFKKPGRKGAAGLRKRPACDPEHGESSSSGDEGDTVAQPPRVAPRPRGLHSWQKAAHGDRRGEEAAPESLDVVYRSTRSAKPVGPEDMGATADFEQDTEKEHHTPTILKCSQRVQEALRGREHDHIYRGIHSYLRYLKPKDTSMGNSSSGMARKGPIRAPGHLRATVRWDYQPDICKDYKETGFCGFGDSCKFLHDRSDYKLGWEIERELEEGRYCICEDENHEVGSEEEEIPFRCFICRQAFQNPVVTKCRHYFCESCALEHFRATPRCYICDQPTGGIFNPAKELMAKLQKLQAAEGKKR | 88 | −0.01
7 | RNF11: human RING type E3 ligase expressed from lentiviral vector (protein, UniProt Q9Y3C5 2-154, looked up) RING finger protein 11: GNCLKSPTSDDISLLHESQSDRASFGEGTEPDQEPPPPYQEQVPVPVYHPTPSQTRLATQLTEEEQIRIAQRIGLIQHLPKGVYDPGRDGSEKKIRECVICMMDFVYGDPIRFLPCMHIYHLDCIDDWLMRSFTCPSCMEPVDAALLSSYETN | 90.7 | 0.03
8 | RNF133: human RING type E3 ligase expressed from lentiviral vector (protein, UniProt Q8WVZ7 1-376, looked up, lentiviral expression, human RING type E3 ligase expressed from lentiviral vector) E3 ubiquitin-protein ligase …: MHLLKVGTWRNNTASSWLMKFSVLWLVSQNCCRASVVWMAYMNISFHVGNHVLSELGETGVFGRSSTLKRVAGVIVPPEGKIQNACNPNTIFSRSKYSETWLALIERGGCTFTQKIKVATEKGASGVIIYNVPGTGNQVFPMFHQAFEDVVVVMIGNLKGTEIFHLIKKGVLITAVVEVGRKHIIWMNHYLVSFVIVTTATLAYFIFYHIHRLCLARIQNRRWQRLTTDLQNTFGQLQLRVVKEGDEEINPNGDSCVICFERYKPNDIVRILTCKHFFHKNCIDPWILPHGTCPICKCDILKVLGIQVVVENGTEPLQVLMSNELPETLSPSEEETNNEVSPAGTSDKVIHVEENPTSQNNDIQPHSVVEDVHPSP | 94.9 | 0.08
9 | RNF139: human RING type E3 ligase expressed from lentiviral vector (protein, UniProt Q8WU17 2-664, looked up) E3 ubiquitin-protein ligase …: AAVGPPQQQVRMAHQQVWAALEVALRVPCLYIIDAIFNSYPDSSQSRFCIVLQIFLRLFGVFASSIVLILSQRSLFKFYTYSSAFLLAATSVLVNYYASLHIDFYGAYNTSAFGIELLPRKGPSLWMALIVLQLTFGIGYVTLLQIHSIYSQLIILDLLVPVIGLITELPLHIRETLLFTSSLILTLNTVFVLAVKLKWFYYSTRYVYLLVRHMYRIYGLQLLMEDTWKRIRFPDILRVFWLTRVTAQATVLMYILRMANETDSFFISWDDFWDLICNLIISGCDSTLTVLGMSAVISSVAHYLGLGILAFIGSTEEDDRRLGFVAPVLFFILALQTGLSGLRPEERLIRLSRNMCLLLTAVLHFIHGMTDPVLMSLSASHVSSFRRHFPVLFVSACLFILPVLLSYVLWHHYALNTWLFAVTAFCVELCLKVIVSLTVYTLFMIDGYYNVLWEKLDDYVYYVRSTGSIIEFIFGVVMFGNGAYTMMFESGSKIRAFMMCLHAYFNIYLQAKNGWKTFMNRRTAVKKINSLPEIKGSRLQEINDVCAICYHEFTTSARITPCNHYFHALCLRKWLYIQDTCPMCHQKVYIEDDIKDNSNVSNNNGFIPPNETPEEAVREAAAESDRELNEDDSTDCDDDVQRERNGVIQHTGAAAEEFNDDTD | 77.5 | −0.14
10 | RNFT2: human RING type E3 ligase expressed from lentiviral vector (protein, UniProt Q96EX2 1-444, looked up) E3 ubiquitin-protein ligase …: MWLFTVNQVLRKMQRRHSSNTDNIPPERNRSQALSSEASVDEGGVFESLKAEAASPPALFSGLSGSLPTSSFPSSLVLGSSAGGGDVFIQMPASREEGGGRGEGGAYHHRQPHHHFHHGGHRGGSLLQHVGGDHRGHSEEGGDEQPGTPAPALSELKAVICWLQKGLPFILILLAKLCFQHKLGIAVCIGMASTFAYANSTLREQVSLKEKRSVLVILWILAFLAGNTLYVLYTFSSQQLYNSLIFLKPNLEMLDFFDLLWIVGIADFVLKYITIALKCLIVALPKIILAVKSKGKFYLVIEELSQLFRSLVPIQLWYKYIMGDDSSNSYFLGGVLIVLYSLCKSFDICGRVGGVRKALKLLCTSQNYGVRATGQQCTEAGDICAICQAEFREPLILLCQHVFCEECLCLWLDRERTCPLCRSVAVDTLRCWKDGATSAHFQVY | 86.5 | −0.03
